The chains are these.
B1: F104 (antibody, V domains shown)
VH: QVQLRESGPSLVKPSQTLSLTCTVSGFSLSSYDVGWVRQAPGKGLECLGGIGNRGNTKYNPALKSRLSITKDNSKSQVSLSLSSVTSEDTATYYCTKSYGGNDVYDCYDSEYWGQGLLVTVSS
VL: QAVLTQPSSVSGSLGQRVSITCSGSSNNIGRYSVGWYQQVPGSGLRTIIYISSSRPSGVPDRFSGSKSGNTATLTISSLQAEDEADYFCATNDYSSDTTIFGSGTTLTVL
B2: F64 (antibody, V domains shown)
VH: QVQLRESGPSLVKPSQTLSLTCTVSGLSLNSIGVIWVRQAPGKALEWVGGINSGGSTYYKSALKSRLSITKDNSNSQVSLSLNSVTPEDTATYYCATYVGDFWGQGLLVTVSS
VL: QAVLTQPSSVSGSLGQRISITCSGSSSNIGRYNVGWYQQVPGSGLRTIIYGSSSRPSGVPDRFSGSKSGNTATLTISSLQAEDEADYFCAADDNSNSTAVFGSGTTLNVL
B3: E40 (antibody)
VH: QVQLRESGPSLVKPSQTLSLTCTASGFSLSDKAVGWVRQAPGKALEWLGGIDTGGNKDYNPGLKSRLSITKDNSKSQMSLSMSSVTTEDSATYYCTTVHQKTNTAKTCRDGHVDVSSCYGSSGCPRSGCCACRRWGGTACSICSSRIVTYTYEFHVDVWGQGLLVTVSS
VL: QAVLTQPSSVSGSLGQRVSITCSGSSSNVGNGYVSWYQLIPGSAPRTLIYGDTSRASGVPDRFSGSRSGNTATLTISSLQAEDEADYFCASPEDSSTNALFGSGTTLTVL
B4: F4 (antibody, V domains shown)
VH: QVQLRESGPSLVKPSQTLSLTCTVSGFSLSSSGVVWVRQAPGKALEWVGSLSSGGLTSRNPALKSRISITKDNSKSQVSLSMSSVTPEDTATYYCAKCGGFYGSTCNGYGSSYDFWGRGLLVTVSS
VL: QAVLTQPSSVSGSLGQRVSITCSGSSSNVGNGYVSWYQLIPGSAPRTLIYGDTSRASGVPDRFSGSRSGNTATLTISSLQAEDEADYFCASAEDSSSNAVFGSGTTLTVL
B5: E43 (antibody)
VH: QVQLRESGPSLVKPSQTLSLTCTASGFSLRDKAVGWVRHTPGKALEWIGSIDSSGNTGYNPGLKSRLSITKDNSKSQVSLSVSAVLSEDSATYYCTVVHQETRQEEGCPDGYLYDSRCGPGGGCSGRLCTRTPSARANDFCCTGRRIRTSTYQHHIDAWGQGLLVTVSS
VL: QAVLTQPSSVSGSLGQRVSITCSGSSSNVGNGYVSWYQLTPGSAPRTLIYGDTTRASGVPDRVSGSRFGNTATLTISSLQAEDEADYFCASAEDGNSNAVFGSGTTLTVL
B6: F115 (antibody)
VH: QVQLRESGPSLVKPSQTLSLTCTASGFSLSDKTLGWVRQAPGKALEWLGSMDSGGNTGYNPDLKSRLSITKDNSRSQVSLSVSSVTTEDSATYYCTTTHQISRKEQRCPDGCRVNGWWGDSGCDDDTYCRYNYWGNCIRCTYVYTYEFHVDAWGQGLLVTVSS
VL: QAVLTQPSSVSGSLGQRVSITCSGSSSNVENGYVSWYQLIPGSTPKTLIYGDTSRASGVPARFSGSRSGNTATLTISSLQAEDEADYFCASAEDTSSNAVFGSGTTLTVL
B7: F56 (antibody, V domains shown)
VH: QVQLRESGPSLVKPSQTLSLTCTFSGFSLSSNGVLWVRQAPGKALEWLGGMCRSGSTNFNPALKSRLSITKNNSKSQVSLSVSSVTPEDTATYYCTTGFDLDCDWGYEDSTWGQGLLVTVSS
VL: QAVLTQPSSVSGSLGQRVSITCSGSSSNIGNDDVGWYQQIPGSGLRTIIYGNNSRPSGVPDRFSGSKSGNTATLTISSLQAEDEADYFCASADDNTSTAVFGSGTTLTVL
B8: F45 (antibody, V domains shown)
VH: QVQLRESGPSLVKPSQILSLTCTVSGFSLSSNGAVWVRQAPGKTLEWIGGISVDGSVRYNPALNSRLSITKDNSKSQVSLSMTSATPEDTATYFCVRCFSGYSPNSVCSTADYVDAWGQRLLVTVSS
VL: QAVVNQPSSVSGSLGQRVFITCSGSSSNVGNGYVIWYQLIPGSGPTTLIYGDASRPSGVPDRFSGSRSGNTATLTIISLQAEDEEDYFCASAEDSSTNAVFGSGTTLTVL
B9: F39 (antibody, V domains shown)
VH: QVQLRESGLSLVKPSQTLSLTCTVSGFSLSSYGVGWVRQAPGKALECLGGITSGGSADYNPALKSRLSITKDNSKSQVSLSLSSVTTEDTATYYCGKTSRFYGLVCNVDFYDDSEYVDAWGQGLLVTVSS
VL: QAVLTQPSSVSGSLGQRVSITCFGSSNDVGYGDYVSWFQQIPGSAPRMIIYGATRRPSGVPDRFSGSRSGNTATLTINSLQAEDEADYFCASPVGLGSGYPIFGSGTALTVL
B10: F36 (antibody, V domains shown)
VH: QVQLRESGPSLVKPSQTLSLTCTVSGFSLSSYAVNWVRQAPGKALECLGSIGSGGSTGYNPALKSRLSITKDNSKSQVSLSVSSVTPEDTATYYCAKTTYSGDSRTFYGCYGSGSAYETYVDTWGQGLLVTVSS
VL: QAVLTQPSSVSGSLGQRVSITCSGSSNNIGNNGVVWYQQVPGSGLRTIIYGSTGRPSGVPDRFSGSKSGNTATLTISSLQAEDEADYFCGTADDSSSIAVFGSGTTLTVL
B11: E16 (antibody)
VH: QVQLRESGPSLVKPSQTLSLTCTVSGFSLSDKAVGWVRQAPGKALEWLGSIDGGEKTTYNPGLKSRLSITKDNSKNQVSLSVSSVSTEDSATYYCSIVYQKRERKCPDGYRPGTFCGSGINARDCRYDGCYASEHWQCCDTYTPGTSAYNFHIDAWGQGLLVTVSS
VL: QAVLTQPSSVSGSLGQRVSITCSGSSSNVGKGYVSWYQRIPGSAPRTLIYDDTSRASGVPDRFSGSRSGNTATLTISSLQVEDEADYFCASAEGSSSNAVFGSGTTLTVL
B12: E12 (antibody, V domains shown)
VH: QVQLRESGPSLVKPSQTLPLTCTVSGFSLSDYGVGWVRQAPGKALEWLGVIYYAGRTVYNPALKSRLSITKDNSKSQISLSLSSVITEDTATYYCTRCYEDYYYDCIDWGHRYDLWGQGLLVTVSS
VL: QAVLTQPSSVSGSLGQRVSITCSGSSSNVGTGNYVTWFQQIPGSAPRILIYGASSRVSGVPDRFSGSRSGNTATLTISSLQAEDEADYFCTSYESDYTAVFGSGTTLTVL

The values that follow come from paper PMC6908506, “Development of Foot-and-Mouth Disease Virus-Neutralizing Monoclonal Antibodies Derived From Plasmablasts of Infected Cattle and Their Germline Gene Usage” (Frontiers in Immunology, 2019).

The first assay addresses T1, FMDV O/Mya/98 146S antigen (Foot-and-mouth disease virus serotype …, UniProt G8JKC2, strain).
T1 construct: also called purified virus antigen; copies: + + +
The assay is described as follows: immunostaining of cells or tissue. As to conditions: one partner purified.
B1: the binding result is given as “binds”. For B2, the binding result is given as “binds”. For the molecule B3, the binding result is recorded as “binds”.

For B4, the binding result is “binds”. Regarding B5, the binding result is given as “binds”. Consider B6, for which the binding result was “binds”.

B7: the binding result is “binds”. Consider B8, for which the binding result was “binds”. B9: the binding result was “binds”. Consider B10, for which the binding result is “binds”.

The target of another assay is T1, FMDV O/Mya/98 146S antigen. The assay is described as follows: ELISA. The settings on record: both partners purified. In general terms: An ELISA detects its analyte on a solid surface through an enzyme-linked reagent.
As to B11, the binding result is on record as “binds”. Consider B12, for which the binding result is on record as “binds”.
